This note sets out measurements from US20200407441A1 (I MAB BIOPHARMA US, published 2020).

Experiment [1] addresses CD47 on human red blood cells (human) (UniProt Q08722). Briefly: flow cytometry on human RBCs, Donor 2.
The target is the same in experiment [2]. Kind of experiment: flow cytometry on human RBCs, Donor 1. A general note: A flow cytometer gives signals particle by particle.
The target in experiment [3] is T1, CD47 (form not stated) (UniProt Q08722 19-139, limits assumed). Briefly: CD47-SIRPα blocking assay; format not stated; blocking of CD47 binding to SIRPα.
The target in another experiment is T2, human CD47-ECD (human, UniProt Q08722 19-139, limits assumed, N-terminal pyroglutamate (seen in the crystal structure)).
T2 construct: extracellular domain; also called recombinant CD47-ECD; CD47 ECD protein
Briefly: ELISA on recombinant CD47-ECD; recombinant CD47-ECD.

Experiment [4] deals with T3, human CD47 on Raji cells (human, UniProt Q08722 19-323).
T3 construct: whole, on cells; also called CD47+ Raji cells; CD47-bearing Raji cells
Kind of experiment: flow cytometry on Raji cells; CD47-bearing Raji cells.

In experiment [5] the target is T3, human CD47 on Raji cells. Kind of experiment: flow cytometry on Raji cells, APC anti-human Fc.
Protocol: (§1) Then, the cells were washed with PBS three times, followed by incubation with APC-labeled anti-human Fc specific antibody (Invitrogen) at 4° C. for 30 minutes. Binding was measured using a FACSCanto (Becton-Dickinson).
The target in experiment [6] is T4, recombinant human CD47-Fc fusion protein (Acrobiosystems) (human, UniProt Q08722 19-139).
T4 construct: extracellular domain; also called recombinant CD47-Fc fusion protein; not shown: Fc
Briefly: blocking ELISA, CD47-Fc coated, blocked ligand SIRPa-His at 1 ug/mL, anti-His HRP. In general terms: ELISA stands for enzyme-linked immunosorbent assay.

Experiment [7] concerns the target T3, human CD47 on Raji cells. Briefly: flow cytometry on Raji cells.
Protocol: as §1
Experiment [8] concerns the target T1, CD47 (form not stated). Briefly: Biacore. (SPR reads the build-up and loss of mass on a sensor chip optically.)
For experiment [9], the target named is T5, recombinant human CD47/mouse Fc fusion protein (Acrobiosystems) (human, UniProt Q08722 19-139).
T5 construct: extracellular domain; Bought reagent; also called dimeric CD47-ECD; not shown: Mouse Fc
Briefly: ELISA on recombinant CD47-ECD (FIG. 2b, dimeric CD47-ECD).

Experiment [10] concerns the target T1, CD47 (form not stated). Kind of experiment: BiaCore (SPR); format not stated.
Experiment [11] has as its target T6, Tag1-CD47 (Cisbio HTRF kit) (UniProt Q08722 19-139).
T6 construct: Kit reagent
Kind of experiment: HTRF competition: blocks Tag1-CD47 / Tag2-SIRPα interaction (Cisbio).
Protocol: (§2) The mixture was incubated at 25° C. for 15 minutes, and further incubated at 25° C. for 1 hour after conjugates pre-mixture was added. Then the plate sealer was removed and fluorescence data was read on a PerkinElmer Envision plate reader.

The target of experiment [12] is T4, recombinant human CD47-Fc fusion …. Kind of experiment: competition ELISA: blocks SIRPα-His binding to coated CD47-Fc.
Protocol: Recombinant CD47-Fc fusion protein (Acrobiosystems) was coated at 1 ug/ml in PBS onto microtiter plates for 16 hours at 4° C. […] Plates were subsequently washed three times and incubated with an HRP-conjugated anti-His secondary antibody for 1 h at RT.
Experiment [13] has as its target T7, biotinylated human CD47-ECD protein (Acrobiosystems) (human, UniProt Q08722 19-139, biotinylated (site not stated)).
T7 construct: extracellular domain; Bought reagent; also called biotinylated CD47 protein; monomeric CD47-ECD
Kind of experiment: ELISA, biotinylated CD47 coated at 1 ug/mL, anti-human Fc HRP.

Experiment [14] addresses T5, recombinant human CD47/mouse Fc fusion …. Kind of experiment: ELISA, CD47/mouse Fc coated at 1 ug/ml, anti-human Fc HRP.
Protocol: CD47/mouse Fc fusion protein (Acrobiosystems) was coated at 1 ug/ml in PBS onto microtiter plates for 2 hours at RT. After coating of antigen the wells were blocked with PBS/0.05% Tween (PBST) with 1% BSA for 1 hour at RT. After washing of the wells with PBST, different concentrations of anti-CD47 antibodies were added to the well and incubated for 1 at RT. For detection of the binding antibodies, the HRP conjugated secondary antibodies against human Fc (Jackson Immuno Research) were added followed by the addition of fluorogenic substrates (Roche). Between all incubation steps, the wells of the plate were washed with PBST three times. Fluorescence was measured in a TECAN Spectrafluor plate reader.
Experiment [15] deals with CD47 on human platelets (human) (UniProt Q08722). Briefly: flow cytometry on human whole blood, gated on CD61 positive platelets, antibody at 10 ug/mL.
Experiment [16] concerns the target T6, Tag1-CD47 (Cisbio HTRF kit). Kind of experiment: HTRF CD47-SIRPa binding assay (ratio 665 nm / 615 nm), blocked ligand Tag2-SIRPa.
Protocol: as §2
The target of experiment [17] is T1, CD47 (form not stated). Briefly: Biacore (SPR); format not stated.
The target in experiment [18] is T3, human CD47 on Raji cells. Briefly: flow cytometry on Raji cells, MFI.

For the molecule IgG (antibody), the percent of cells in the binding gate in experiment [1] stood at 0.018%; in experiment [2] it was 0.079%.

B1: CD47 antibody 34C5 (antibody, V domains shown)
VH: QVQLVQSGAEVKKPGSSVKVSCKASGYTFSSYYMHWVRQAPGQGLEWMGEINPNNARINFNEKFKTRVTLTVDKSTSTAYMELSSLRSEDTAVYYCTRGYYRYGAWFGYWGQGTLVTVSS
VL: DIQMTQSPSSLSASVGDRVTITCRASQDISDYLNWYQQKPGKAPKLLIYYISRLHSGVPSRFSGSGSGTDYTLTISSLQPEDFATYYCQQGHTLPWTFGGGTKVEIK
With B1, the half-maximal effective concentration (EC50) – broadly, the concentration that produces a half-maximal response – with CD47 (form not stated) [3] came to 0.3 nM; with human CD47-ECD it was 0.27 nM; with human CD47 on Raji cells [4], 0.83 nM.

B2: CD47 antibody 1F8 (antibody, human IgG1, V domains shown)
VH: KVQLVESGGGLVKPGGSLRLSCAASGFTFSNAWMNWVRQAPGKGLEWVGRIKRKTDGETTDYAAPVKGRFSISRDDSKNTLYLQMNSLKTEDTAVYYCAGSNRAFDIWGQGTMVTVSA
VL: DIVMTQSPDSLAVSLGERATINCKSSQSVLYSSNNRNYLAWYQQKPGQPPKLLINQASTRASGVPDRFSGSGSGTEFTLIISSLHAEDVAIYYCQQYYTPPLAFGGGTKLEIK
On to B2, for which the concentration for a half-maximal effect (EC50 (read off the curve)) (commonly the concentration giving half of the maximal effect) with human CD47 on Raji cells [5] was around 0.2 µg/mL; in experiment [13] it was around 0.009 µg/mL; in [14], around 0.006 µg/mL. In addition, in experiment [6], the “IC50 (read off the curve)” value was around 0.3 µg/mL. For the same molecule, the EC50 with human CD47 on Raji cells [7] is 2.95 nM; in [9] it was 0.038 nM. The on-rate constant (kon) (in general, the rate constant with which the complex forms) with CD47 (form not stated) [8] amounted to 375000 M⁻¹ s⁻¹. Also, in the experiment with CD47 (form not stated) [10], the Kd – broadly, the free concentration of one partner at which half of the binding sites on the other are occupied at equilibrium, for simple one-to-one binding – turned out to be 2.8 nM. Moreover, the koff (usually the first-order rate constant of dissociation) in the experiment with CD47 (form not stated) [10] came out at 0.00104 s⁻¹. Also, the IC50 (usually the concentration needed to halve the response being measured) in [11] was determined as 1.6 nM; in experiment [12], 0.78 nM. For the same molecule, the percent of cells in the binding gate in experiment [1] was found to be 0.076%; in experiment [2], 0.065%. Also, the percent of CD61+ platelets in the binding gate in experiment [15] turned out to be 0.77%.

B3: CD47 antibody 13H3 (antibody, V domains shown)
VH: KVQLVESGGGLVKPGGSLRLSCAASGLTFERAWMNWVRQAPGKGLEWVGRIKRKTDGETTDYAAPVKGRFSISRDDSKNTLYLQMNSLKTEDTAVYYCAGSNRAFDIWGQGTMVTVSA
VL: DIVMTQSPDSLAVSLGERATINCKSSQSVLYAGNNRNYLAWYQQKPGQPPKLLINQASTRASGVPDRFSGSGSGTEFTLIISSLQAEDVAIYYCQQYYTPPLAFGGGTKLEIK
In the case of B3, the figures for the EC50 (with human CD47 on Raji cells [7]; in experiment [9]; with human CD47 on Raji cells [18]) were 1.06 nM, 0.045 nM and 1.07 nM, respectively. Further, the results for the Kd with CD47 (form not stated) [8] and with CD47 (form not stated) [17] were 0.46 nM and 7.81 nM, respectively. Moreover, the koff with CD47 (form not stated) [8] was 0.000247 s⁻¹; in the experiment with CD47 (form not stated) [17], 0.00282 s⁻¹. Further, the results for the kon in the experiment with CD47 (form not stated) [8] and with CD47 (form not stated) [17] were 533000 M⁻¹ s⁻¹ and 361000 M⁻¹ s⁻¹, respectively. The IC50 in experiment [16] turned out to be 0.36 nM; in experiment [12], 0.2 nM.
